Experimental data from article PMC7347456 (Structure (London, England : 1993), 2020).
Ends that are not written are not given here.

Legend:
[1] = target: full-length human LRH-1 D314R (human, UniProt O00482 1-541, D314R); test: fluorescence polarisation
[2] = target: full-length human LRH-1 A324R (human, UniProt O00482 1-541, A324R); test: fluorescence polarisation
[3] = target: T1, full-length human LRH-1 (Liver Receptor Homolog-1; NR5A2), wild type (human, UniProt O00482 1-541); test: fluorescence polarisation
[4] = target: full-length human LRH-1 S148R (human, UniProt O00482 1-541, S148R); test: fluorescence polarisation
[5] = target: full-length human LRH-1 R174D/D314R (human, UniProt O00482 1-541, R174D | D314R); test: fluorescence polarisation
[6] = target: T1, full-length human LRH-1 (Liver Receptor …); test: cross-linking

T1 sequence (O00482 whole entry): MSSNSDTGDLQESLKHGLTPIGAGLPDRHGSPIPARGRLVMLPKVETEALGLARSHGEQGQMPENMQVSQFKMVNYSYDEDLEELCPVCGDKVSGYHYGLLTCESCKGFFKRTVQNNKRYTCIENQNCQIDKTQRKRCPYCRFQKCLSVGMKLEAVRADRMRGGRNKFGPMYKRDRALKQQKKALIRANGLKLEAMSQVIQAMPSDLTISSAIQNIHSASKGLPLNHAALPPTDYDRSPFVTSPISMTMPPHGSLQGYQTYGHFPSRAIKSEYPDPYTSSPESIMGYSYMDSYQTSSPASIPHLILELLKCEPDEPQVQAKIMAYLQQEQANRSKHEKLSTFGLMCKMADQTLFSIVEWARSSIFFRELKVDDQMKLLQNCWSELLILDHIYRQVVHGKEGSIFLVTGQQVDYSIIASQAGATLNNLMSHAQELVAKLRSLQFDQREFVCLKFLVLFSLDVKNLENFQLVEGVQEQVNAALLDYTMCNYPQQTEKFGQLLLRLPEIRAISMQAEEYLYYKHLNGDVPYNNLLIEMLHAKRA
Sequence of full-length human LRH-1 A324R (O00482 whole entry A324R): as the sequence (O00482 whole entry) above, with A324R counted along it
Sequence of full-length human LRH-1 R174D/D314R (O00482 whole entry R174D/D314R): as the sequence (O00482 whole entry) above, with R174D, D314R counted along it
Sequence of full-length human LRH-1 S148R (O00482 whole entry S148R): as the sequence (O00482 whole entry) above, with S148R counted along it
Sequence of full-length human LRH-1 D314R (O00482 whole entry D314R): as the sequence (O00482 whole entry) above, with D314R counted along it

Row | Binder | Kd [1] [nM] | Kd [2] [nM] | Kd [3] [nM] | Kd [4] [nM] | Kd [5] [nM] | binding result [6]
1 | {FAM}-EEPSLLKKLLLAPA [N-terminally FAM-labeled PGC1α co-regulator peptide (740-EEPSLLKKLLLAPA-753)] | 2280 | 1510 | 1360 | 7030 | 1720 | 
2 | EEPSLLKKLLLAPA [PGC1α co-activator peptide (740-EEPSLLKKLLLAPA-753), unlabeled] |  |  |  |  |  | binds
